# Measurements taken from US20180251489A1.
# Target: mucosa-associated lymphoid tissue lymphoma translocation protein 1 (UniProt Q9UDY8)
# Experiment: enzyme inhibition assay, 100 nM MALT1
# mucosa-associated lymphoid tissue lymphoma translocation protein 1, sequence (Q9UDY8 340-789): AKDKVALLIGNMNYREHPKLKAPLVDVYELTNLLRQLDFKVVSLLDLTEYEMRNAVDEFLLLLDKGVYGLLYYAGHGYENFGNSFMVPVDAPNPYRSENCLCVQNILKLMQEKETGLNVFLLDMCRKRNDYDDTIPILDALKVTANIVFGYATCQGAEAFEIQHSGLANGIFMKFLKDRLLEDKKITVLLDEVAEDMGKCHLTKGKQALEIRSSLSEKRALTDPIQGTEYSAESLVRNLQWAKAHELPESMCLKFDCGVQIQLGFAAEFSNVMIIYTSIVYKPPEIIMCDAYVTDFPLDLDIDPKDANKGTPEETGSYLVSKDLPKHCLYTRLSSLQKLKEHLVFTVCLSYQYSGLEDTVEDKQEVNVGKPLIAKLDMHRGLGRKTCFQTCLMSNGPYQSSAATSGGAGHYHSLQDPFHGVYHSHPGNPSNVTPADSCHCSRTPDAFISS
row,Substance,Ki
1,2-Chlorobenzyl ((S)-1-((S)-2-(((S)-1-fluoro-6-guanidino-2-oxohexan-3-yl)carbamoyl)pyrrolidin-1-yl)-3-methyl-1-oxobutan-2-yl)carbamate (peptide),27 nM
2,3-Chlorobenzyl ((S)-1-((S)-2-(((S)-1-fluoro-6-guanidino-2-oxohexan-3-yl)carbamoyl)pyrrolidin-1-yl)-3-methyl-1-oxobutan-2-yl)carbamate (peptide),22 nM
3,4-Bromo-N-((S)-1-(((S)-1-(((S)-1-fluoro-6-guanidino-2-oxohexan-3-yl)amino)-1-oxopropan-2-yl)amino)-3-methyl-1-oxobutan-2-yl)benzamide (peptide),38 nM
4,4-Bromo-N-((S)-1-cyclohexyl-2-(((S)-1-(((S)-1-fluoro-6-guanidino-2-oxohexan-3-yl)amino)-3-hydroxy-1-oxopropan-2-yl)amino)-2-oxoethyl)benzamide (peptide),46 nM
5,4-Chlorobenzyl ((S)-1-((S)-2-(((S)-1-fluoro-6-guanidino-2-oxohexan-3-yl)carbamoyl)pyrrolidin-l-yl)-3-methyl-1-oxobutan-2-yl)carbamate (peptide),32 nM
6,4-bromo-N-((S)-1-(((S)-1-(((S)-1-fluoro-6-guanidino-2-oxohexan-3-yl)amino)-3-hydroxy-1-oxopropan-2-yl)amino)-3-methyl-1-oxobutan-2-yl)benzamide (peptide),64 nM
7,"(2S,4R)-1-((4-Bromobenzoyl)-L-valyl)-4-cyano-N-((S)-1-fluoro-6-guanidino-2-oxohexan-3-yl)pyrrolidine-2-carboxamide (peptide)",28 nM
8,"(2S,4R)-1-((4-Bromobenzoyl)-L-valyl)-N-((S)-1-fluoro-6-guanidino-2-oxohexan-3-yl)-4-hydroxypyrrolidine-2-carboxamide (peptide)",50 nM
9,"(2S,4R)-1-((S)-2-(4-Bromobenzamido)-2-cyclohexylacetyl)-N-((S)-1-fluoro-6-guanidino-2-oxohexan-3-yl)-4-hydroxypyrrolidine-2-carboxamide (peptide)",34 nM
10,(S)-1-((1-naphthoyl)-L-valyl)-N-((S)-1-fluoro-6-guanidino-2-oxohexan-3-yl)pyrrolidine-2-carboxamide (peptide),102 nM
11,(S)-1-((2-(3-Bromophenyl)acetyl)-L-valyl)-N-((S)-1-fluoro-6-guanidino-2-oxohexan-3-yl)pyrrolidine-2-carboxamide (peptide),46 nM
12,(S)-1-((2-Bromobenzoyl)-L-valyl)-N-((S)-1-fluoro-6-guanidino-2-oxohexan-3-yl)pyrrolidine-2-carboxamide (peptide),105 nM
13,(S)-1-((2-naphthoyl)-L-valyl)-N-((S)-1-fluoro-6-guanidino-2-oxohexan-3-yl)pyrrolidine-2-carboxamide (peptide),47 nM
14,(S)-1-((3-Bromobenzoyl)-L-valyl)-N-((S)-1-fluoro-6-guanidino-2-oxohexan-3-yl)pyrrolidine-2-carboxamide (peptide),41 nM
15,(S)-1-((3-acetamidobenzoyl)-L-valyl)-N-((S)-1-fluoro-6-guanidino-2-oxohexan-3-yl)pyrrolidine-2-carboxamide (peptide),54 nM
16,(S)-1-((3-cyanobenzoyl)-L-valyl)-N-((S)-1-fluoro-6-guanidino-2-oxohexan-3-yl)pyrrolidine-2-carboxamide (peptide),39 nM
17,(S)-1-((4-(tert-Butyl)benzoyl)-L-valyl)-N-((S)-1-fluoro-6-guanidino-2-oxohexan-3-yl)pyrrolidine-2-carboxamide (peptide),45 nM
18,(S)-1-((4-Bromo-2-fluorobenzoyl)-L-valyl)-N-((S)-1-fluoro-6-guanidino-2-oxohexan-3-yl)pyrrolidine-2-carboxamide (peptide),71 nM

row,Substance,Ki
1,(S)-1-((4-Bromo-2-methylbenzoyl)-L-valyl)-N-((S)-1-fluoro-6-guanidino-2-oxohexan-3-yl)pyrrolidine-2-carboxamide (peptide),40 nM
2,(S)-1-((4-Bromobenzoyl)-L-leucyl)-N-((S)-1-fluoro-6-guanidino-2-oxohexan-3-yl)pyrrolidine-2-carboxamide (peptide),182 nM
3,(S)-1-((4-Bromobenzoyl)-L-valyl)-N-((S)-1-fluoro-6-guanidino-2-oxohexan-3-yl)azetidine-2-carboxamide (peptide),118 nM
4,(S)-1-((4-Bromobenzoyl)-L-valyl)-N-((S)-1-fluoro-6-guanidino-2-oxohexan-3-yl)pyrrolidine-2-carboxamide (peptide),10 nM
5,(S)-1-((4-Cyanobenzoyl)-L-valyl)-N-((S)-1-fluoro-6-guanidino-2-oxohexan-3-yl)pyrrolidine-2-carboxamide (peptide),60 nM
6,(S)-1-((4-bromo-3-cyanobenzoyl)-L-valyl)-N-((S)-1-fluoro-6-guanidino-2-oxohexan-3-yl)pyrrolidine-2-carboxamide (peptide),13 nM
7,(S)-1-((4-bromo-3-fluorobenzoyl)-L-valyl)-N-((S)-1-fluoro-6-guanidino-2-oxohexan-3-yl)pyrrolidine-2-carboxamide (peptide),78 nM
8,(S)-1-((4-bromobenzoyl)-L-valyl)-N-((S)-1-fluoro-6-guanidino-2-oxohexan-3-yl)piperidine-2-carboxamide (peptide),79 nM
9,(S)-1-((4-chloro-3-cyanobenzoyl)-L-valyl)-N-((S)-1-fluoro-6-guanidino-2-oxohexan-3-yl)pyrrolidine-2-carboxamide (peptide),24 nM
10,(S)-1-((4-chlorobenzoyl)-L-valyl)-N-((S)-1-fluoro-6-guanidino-2-oxohexan-3-yl)pyrrolidine-2-carboxamide (peptide),67 nM
11,(S)-1-(((2-Chlorophenyl)carbamoyl)-L-valyl)-N-((S)-1-fluoro-6-guanidino-2-oxohexan-3-yl)pyrrolidine-2-carboxamide (peptide),24 nM
12,(S)-1-(((3-Chlorophenyl)carbamoyl)-L-valyl)-N-((R)-1-fluoro-6-guanidino-2-oxohexan-3-yl)pyrrolidine-2-carboxamide (peptide),557 nM
13,(S)-1-(((3-Chlorophenyl)carbamoyl)-L-valyl)-N-((S)-1-fluoro-6-guanidino-2-oxohexan-3-yl)pyrrolidine-2-carboxamide (peptide),27 nM
14,(S)-1-(((4-Bromophenyl)sulfonyl)-L-valyl)-N-((S)-1-fluoro-6-guanidino-2-oxohexan-3-yl)pyrrolidine-2-carboxamide (peptide),66 nM
15,(S)-1-(((4-Chlorophenyl)carbamoyl)-L-valyl)-N-((S)-1-fluoro-6-guanidino-2-oxohexan-3-yl)pyrrolidine-2-carboxamide (peptide),62 nM
16,(S)-1-((Cyclohexanecarbonyl)-L-valyl)-N-((S)-1-fluoro-6-guanidino-2-oxohexan-3-yl)pyrrolidine-2-carboxamide (peptide),56 nM
17,(S)-1-((S)-2-(4-Bromobenzamido)-3-(4-(trifluoromethyl)phenyl)propanoyl)-N-((S)-1-fluoro-6-guanidino-2-oxohexan-3-yl)pyrrolidine-2-carboxamide (peptide),448 nM
